Our source for the K half values is PMC11002309.

This series has as its system PBRM1-BD4 WT. Briefly: EMSA. As to conditions: 20 uM chosen from titration to approximate EC50; 150 nM DNA, protein 0-50 uM; EMSA: 10.5 mM K3PO4 pH 7 (20 °C), 10 mM KCl, 1% v/v glycerol, 0.2 mM DTT; 1 h on ice; 5% 75:1 native gel in 0.2x TBE, 4 °C. (In general: Mobility shift assays separate free from complexed probe on a gel.)

The substance Widom 601 DNA registered a K half of 20 µM.
